Results: the DeepSol protein solubility set

Test: soluble on expression in E. coli; label from the status in PepcDB or PDB records

Row | Sequence | soluble on expression in E. coli
1 | MLTGLFFGSFNPMHIGHLALANYLTEYTPIGQLWFVPSPLNPLKNTQELLPYDLRCELIEQAIRKDIRFQVLRIEELLPSPHYTIRTLRALSMLYPHHRFALLIGADNWQSFDRWKDHHRLMAKYELIIYPRFGYEVDDTTLPTGCRYIHDAPRIEISSTQIRTSILEGKDLRYWLPLPESQDVIASALQSCLSPKR | not soluble
2 | ELEKSEELYKSLLEDASDAIVVVDENEIVKMVNKMAEEFFGHSSEEVVGLPLSRMLVLVKTHNIPIVYNFFQEVGKGRHVAEEIRFSRVEGEQVVGLIHANTVTIGSERLIQAIIRDVT | not soluble
3 | MRKPKITVIGGGTGIPVILKSLRLEDVEITAVVTVADDGGSSGELRSVMQLTPPGDLRNVLVALSDMPKFYEQIFQYRFAEGDGDFAGHPLGNLIIAGVAEMQGSTYNAMQSLTQFFHTTGKIYPSSEHPLTLHAVFKDGHEVVGESQIADYKGMIDHVYVTNTYNEETPTASRKVVDAILESDMIVLGPGSLFTSILPNLVIPEIKQALLETRAEVAYVCNIMTQRGETEHFTDADHVEVLKRHLGQDAIDTVLVNIEKVPESYMENNHFDEYLVQVEHDFSGLRKHARRVISSNFLKLEKGGAFHHGDFVVEELMNLVGTHLLEHHHHHH | not soluble
4 | MLIVGEDFGMRVSVLASSSSGNATYIETPGHKVLVDAGLSGKKIETLMQSIGRDLTDVDSVFITHEHSDHVRGVGVLARRYPKLSVYANAKTFAALPKSVGKIPEDQLRLFDMGATLTLGDLDVESFGVSHDAAAPQFYQFHHDGKTFTILTDTGYVSDRVAGTIRDADAYVMECNHDLEMLRTGPYPWPLKQRILGDQGHLSNEDGADALMDVIGLRTKRIYLGHLSPHNNNKPLAHLTVASLLAQQGLAVDHDFRIYDTDPAVADPLFVVLEHHHHHH | not soluble
5 | MNEIKCPNCGEVFTVNESQYAELLSQVRTAEFDKELHDRMKQELALAEQKAMNEQQTKLAQKDQEIAQLQSQIQNFDTEKELAKKEVEQTSHEALLAKDKEVQLLENQLATLRLEHENQLQKTLSDLEKERDQVKNQLLLQEKENELSLASVKQNYEAQLKAASEQVEFYKNFKAQQSTKAIGESLEQYAESEFNKVRSFAFPNAYFEKDNKVSSRGSKGDFIFRECDENGVEIISIMFEMKNEADGTEKKHKNADFYKELDKDRREKNCEYAVLVTMLEADNDYFNTGIVDVSHEYEKMYVVRPQFFIQLIGLLRNAALNSLKYKQELALVREQNIDITHFEEDLDAFKLAFAKNYNSASTNFGKAIDEIDKAIKRMEEVKKFLTTSENQLRLANNKLEDVSVKKLTRKNPTMKAKFEALKGE | not soluble
6 | MGSDKIHHHHHHMPNIPLRVNSLATEHPNNAQNSDKMPTFDAIFSHLSAIASHNSHQIIALLPSSDANWPAALIAERLTQAGSKQHLQKQHLHLHLFAQHQASWLKALAESETLASPAKEQIKAICDARVSGSHRLKLVNARLIIDIHLGDPLTQLKDLVSPSLASQAIQGWLANTQATDEALIWQMARLSQDNAEFLLLENNDVNLDKTSNNANTNLLTQLIIKAGFTCYRLNLSLKDDQLVTLAEKPSLASLEIAMVERRALRRQQLDKFAFNPLTQGREGETAIIGGGVASANLALSLAERGKKVSFFCMDKAPGEQASGNKQGAIYPLLTPEHGSLSHYFLLGYLFSRQRIKQLLESGHEIPHDFCGVLQTGHDERSHKRLTKIINAQPWAESIARPVDALQATALAGVTIEHQGIYYPLAGWVSPQ | not soluble
7 | MGSDKIHHHHHHLTKKITEFQNDEEMELFVLIKSAEKRVTKAGKDFISMKFQDRSGDIHGNCWDAKEEDFKNFQPGRVVLLRGKRETYKNAPQVKIMAMRLATDEEPNDPTAYTEKGPVSAEKLREEFTQLMFEINNPDWNRVVRYLLKKYDREFFSFPAAKTNHHAFEGGLAFHTLSIVNLAKSVAAQYEQVDQSLLIAGAILHDLGKTIELSGPIATQYTVEGNLLGHIVIVDEEIVEAAKDLKIDPSSESMVVLRHMIVAHHGLKEYGSPVEPHMLEAVILHALDELDAEIQMVSGALKNTQPGAFSERIFGMDGRNFYKPESK | not soluble
8 | MNNAMQLLQPYPFKKLRALLGSVTPNPEKRPVALSIGEPKHRSPDFVAKALADNLDQMAVYPTTLGIPALREAIAGWCNRRFGVPQGWIDPARNVLPVNGTREALFAFTQTVVNRSDDGLVVSPNPFYQIYEGAAFLAGAQPHYLPCLSDNGFNPDFDAVDADIWKRCQILFLCSPGNPTGALIPVETLKKLIALADEHDFVIAADECYSELYFDEQTPPPGLLSACVELGRQDFKRCVVFHSLSKRSNLPGLRSGFVAGDAEILKAFLLYRTYHGCAMPVQTQLASIAAWNDEEHVRANRDLYREKFDAVLDILAPVLDVQRPDGGFYLWPNVGTDDAAFCRDLFVDQHVTAVPGSYLSREVDGVNPGAGRVRLALVAPLAECIEAAERIRAFVLK | not soluble
9 | MSLKAAVYEGKKAIKMTELPTPKAGPNDVVIQNIYAGICGSDVAVYNHGSGTGHKIETDHEFGHEAVSKVVEVGDDVHDFKIGDRVYPYPLLARGDPSRAGSMGGFSEYILIPNAKLNRQLYLVPKEIDNHVAAMIEPFTVGTRAAKQTRPDKNDNAIVYGTGTIGMAAAVALKHLGVKQVMLVDLSDYRLNVAKELGFLTVNSSRDDVRSQAIEAFGKAEYSLHGEAPDTQIFLDAAGHNSILEDFLQFGPVGSRFVTVGVNNSKPQIDFLELIFGSKSVGGSGGYRPEDVQTVFEIMKERQSDLRKMVSQEFDWQDLEKGIQTATDTTISEKVLINYHEGHHHHHH | soluble
10 | MAPPSQDVLKEIFNLYDEELDGKIDGTQVGDVARAAGLKPTQAMVTKAAGQEFKRKGEKRLTFEEWLPMYEQLAKEKEQGTYADFYEGLKVFDKEETGKILAAELRHILLALGERLSADEADELLKGVEDGEGMVKYEDFIKKVLAGPFPDQD | not soluble
11 | SLAQTQLIQSEKMSSLGQLIAGVAHEINNPVNFIYGNLRYVAEYAQDLLHLLEKYQKFLPVTPPELESELDNIDLEFIIQDLPKLLDSMKLGTGRIVEIVQSLKNFSRHDEAEMKAVNIHDGIDGTLMILHHRLKAAIRRPKIEIVKDYAKLPLIECYPGKLNQVFMNILANAIDALEEGMGNEEIPPPTGQITIRTEVLDNQWVVIRIADNGPGMKEEVIRRIYDPFFTTKDVGKGTGLGMAISYQIVVDKHGGMLKCRSQPGEGTEFWIQIPVNCALADAAEEG | not soluble
12 | QADTAMIVQISADRKEINLVSIPRDSLVDVPQCETSKGTIPAQYNVMFNSIFAGAYKTGGDLSSAASCTLNAVNSLTGLNIQNFIVVDFAGLVKMIDSVGGVDLCIPQNVNDPYTGLNLDKGMHHLDGVAATQYARIRHGIGDGSDTSRTTRQQYLIKQLMSEALS | not soluble
13 | MGYTKKVYEGGSNVDQFVTRFLLKETANQIQSLLSSVESAVEAIEEQTSQLRQNHIKPSHSAAQTWCGSPTPASAPNHKLMAMEQGKTLPSATEDAKEEGLEAQISRLAELIGRLESKALWFDLQQRLSDEDGTNMHLQLVRQEMAVCPEQLSEFLDSLRQYLRGTTGVRNCFHITAVRLSDGFTFVIYEFWETEEAWKRHLQSPLCKAFRHVKVDTLSQPEALSRILVPAAWCTVGRD | not soluble
14 | MLYKEPEDGEKIKFDKGKWIVPNKPVILYIEGDGIGPEITNAAIKVINKAVERAYGSSREIKWLEVYAGEKAEKLVNDRFPKETQEMLLKYRVVLKGPLETPIGKGWKSVNVAIRLMLDLYANIRPVKYIEGLESPLKHPEKVDMIIFRENTDDLYRGIEYPFNSEEAKKIRDFLRKELKVEIEDDTGIGIKVMSKYKTQRITRLAIQYAIEHKRKKVTIMHKGNVMKYTEGAFREWAYEVALKEYRDFIVTEEEINQGKPDQGKIILNDRIADNMFQQIIIRPEEYDIILAPNVNGDYISDAAGALIGNIGMLGGANIGDEGGMFEAIHGTAPKYAGKNVANPTGIIKAGELMLRWMGWNEAADLIEKAINMAIRDKKVTQDIARFMGVKALGTKEYADELIKIMDTI | soluble
15 | GSPGISGGGGGILDMADDDVLFEDVYELCEVIGKGAFSVVRRCINRETGQQFAVKIVDVAKFTSSPGLSTEDLKREASICHMLKHPHIVELLETYSSDGMLYMVFEFMDGADLCFEIVKRADAGFVYSEAVASHYMRQILEALRYCHDNNIIHRDVKPENVLLASKENSAPVKLGDFGVAIQLGESGLVAGGRVGTPHFMAPEVVKREPYGKPVDVWGCGVILFILLSGCLPFYGTKERLFEGIIKGKYKMNPRQWSHISESAKDLVRRMLMLDPAERITVYEALNHPWLKERDRYAYKIHLPETVEQLRKFNARRKLKGAVLAAVSSHKFNSFYGDPPEELPDFSEDPTS | soluble
